Experimental data reported in patent US20050182242A1, “Global analysis of protein activities using proteome chips” (priority 2001, published 2005).

Assays:
[1] = tested on: phosphatidylcholine (PC) liposomes; experiment: Yeast proteome chip probed with PC liposomes; details: liposome binding signal on yeast proteome chip, Cy3-streptavidin detection
Method in brief: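 Signal comes from Cy3- or Cy5-streptavidin recognising 1% (w/w) biotin-DHPE carried in every liposome. Liposomes were PC alone or PC containing 5% (w/w) of a single phosphoinositide, applied to arrayed GST-fusion yeast proteins for 1 h at RT.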

PI(3,4,5)P3 liposomes = experiment: Yeast proteome chip probed with PI(3,4,5)P3 liposomes; details: liposome binding signal on yeast proteome chip, Cy3-streptavidin detection
PI(3,4)P2 liposomes = experiment: Yeast proteome chip probed with PI(3,4)P2 liposomes; details: liposome binding signal on yeast proteome chip, Cy3-streptavidin detection
PI(3)P liposomes = experiment: Yeast proteome chip probed with PI(3)P liposomes; details: liposome binding signal on yeast proteome chip, Cy3-streptavidin detection
PI(4,5)P2 liposomes = experiment: Yeast proteome chip probed with PI(4,5)P2 liposomes; details: liposome binding signal on yeast proteome chip, Cy3-streptavidin detection
PI(4)P liposomes = experiment: Yeast proteome chip probed with PI(4)P liposomes; details: liposome binding signal on yeast proteome chip, Cy3-streptavidin detection
[2] = tested on: phospholipids (phosphatidylinositols vs phosphatidylcholine); experiment: Proteome chip lipid-binding screen, overall analysis of six liposomes (PI/PC specificity); details: for preferential binding of particular phosphatidylinositol lipids: compared with phosphatidylcholine
Excerpt: FIGS. 4A-4D. Analysis of the phosphatidylinositol-binding proteins. To determine the phosphatidylinositol (“PI”)-binding specificity of 150 positive proteins, their binding signals were normalized against the corresponding binding signals of phosphatidylcholine (“PC”). Based on the ratios (“PI/PC”), the proteins were grouped into four categories: (A) 30 strong and specific, (B) 43 strong and nonspecific, (C) 19 weak and specific, and (D) 58 weak and nonspecific phosphatidylinositol-binding proteins. The intensity represents the PI/PC signal ratio as shown by the scale in the figure. The column, labeled “10^n” to the right of the PI/PC binding ratios indicates the maximum binding signal intensity (open boxes) and its confidence interval (solid horizontal lines); the numbers indicate the log of the values. Boxes in the three columns to the right of the confidence interval column indicate membrane-associated proteins (“Membrane”), kinases (“Kinase”), and uncharacterized ORFs (“Unknown”), respectively.
To identify PI-binding proteins in yeast, liposomes were used as probes because the liposome provides the most relevant physiological condition to assay the interactors. Six types of liposomes were used. Each contains phosphatidylcholine (“PC”) with 1% (w/w) N-(biotinoyl)-1,2-dihexadecanoyl-sn-glycero-3-phosphoethanolamine, triethylammonium salt (biotin DHPE). The biotinylated lipid serves as a label that can be detected by Cy3-streptavidin (21). In addition to PC, the five other liposomes contain either 5% (w/w) PI(3)P, PI(4)P, PI(3,4)P2, PI(4,5)P2, or PI(3,4,5)P3 (FIG. 3A).
The protein-liposome interaction was assayed as follows. Appropriate amounts of each lipid in chloroform were mixed and dried under nitrogen. The lipid mixture was resuspended in TBS buffer by vortexing. The liposomes were created by sonication. Blocked proteome chips were washed three to five times in PBS buffer, and the extra liquid on the glass surface was removed by tapping the slides vertically on a KIMWIPE™. 200 μl of liposome solution was added to the proteome chip and immediately covered by a hydrophobic plastic cover slip (GRACE BIO-LAB™, USA). After trapped air bubbles were removed, the chip was incubated in a humidity chamber at RT for one hour. To remove the cover slip, the chip was immersed into large volume of PBS buffer (50 ml), so that the slip would float away. The chip was then moved to a second PBS bath (>50 ml) and washed 3×5 min with shaking at RT. After removing extra liquid on the surface of the chip, about 100 μl of Cy3 or Cy5 conjugated streptavidin (PIERCE™, USA; 1:2000 to 1:4000 dilution) was added to the surface and covered by a hydrophobic plastic cover slip (GRACE BIO-LABS™, USA). The chip was incubated for greater than 30 min in the dark at RT. The chip was then washed as described above. To completely remove the liquid on the chip, the chip was spun to dryness at 1500-2000 rpm for 5-10 min at RT.
An algorithm was devised to assist in the identification of positive signals (42). Fifty-two (35%) of the interactors (i.e., lipid-binding proteins) correspond to uncharacterized proteins thus ascribing the first biochemical activities to those proteins.
The interactors (i.e., phospholipid-binding proteins) were grouped in several ways (42). First, the interactors were sorted according to whether they bound lipids strongly or weakly, based on the phospholipid-binding signal relative to the amount of GST (FIG. 4). Slightly more (72%) of the strong lipid binding proteins (FIGS. 4A and 4B) were characterized relative to the weakly binding proteins (54%) (FIGS. 4C and 4D). Many of the strong lipid-binding proteins are membrane-associated, or are predicted to be associated with membranes, whereas fewer of the weaker binding proteins appear to be associated with membranes (FIG. 4, “Membrane” column). […] Moreover, thirteen of the seventeen protein kinases bind very strongly to the phospholipids. […]

total yeast genomic DNA = experiment: Yeast proteome chip probed with labeled genomic DNA; assay type: binding; details: Cy3-labeled genomic DNA, visual inspection
Excerpt: Protein-DNA and protein-RNA interactions are important for many fundamental biological functions such as transcription regulation, chromosome segregation and maintenance, and RNA transport and processing (Williamson, 2000, Nat. Struct. Biol. 7(10):834-7). To explore the possibility of using a proteome chip to identify proteins that bind to DNA or RNA molecules, total yeast genomic DNA was labeled using Cy3-CTP and Klenow fragment, and polyA^+ was labeled using a biotinylated psoralen-derivative (31). Each probe was incubated with a different proteome chip (FIG. 3A).
The protein-nucleic acid interaction was assayed as follows. The nucleic acid robes were labeled as described by Winzeler et al. (1999, Science 285:901). Blocked proteome chips were washed three to five times in PBS buffer, and the extra liquid on the glass surface was removed by tapping the slides vertically on a KIMWIPE™. 200 μl of labeled nuclei acid probe ([…] poly(dC/dG); 100-300 mM NaCl; 50-300 mM HEPES, pH 7.0-8.5; 10 mM MgCl2) was added to the proteome chip and immediately covered by a hydrophobic plastic cover slip (GRACE BIO-LABS™, USA). After trapped air bubbles were removed, the chip was incubated in a humidity chamber in the dark at room temperature (“RT”) for one hour. To remove the cover slip, the chip was immersed into large volume of PBS buffer(>50 ml), so that the slip would float away. The chip was then moved to a second PBS bath (>50 ml) and washed 3×5 min with shaking in the dark at RT. To completely remove the liquid on the chip, the chip was spun to dryness at 1500-2000 rpm for 5-10 min at RT.

| Molecule | PC [1] | PI(3, 4, 5)P3 (PI(3,4,5)P3 liposomes) | PI(3, 4)P2 (PI(3,4)P2 liposomes) | PI(3)P (PI(3)P liposomes) | PI(4, 5)P2 (PI(4,5)P2 liposomes) | PI(4)P (PI(4)P liposomes) | preferential binding of particular phosphatidylinositol lipids [2] | binding of genomic DNA probe (total yeast genomic DNA) | identified as lipid-binding interactor ([2]; phospholipid liposome probes) |
| --- | --- | --- | --- | --- | --- | --- | --- | --- | --- |
| SPS2: yeast sporulation protein of prospore membrane, GST-HisX6 fusion (protein, UniProt P08459 57-475, looked up, GST-His6 tag, yeast sporulation protein of prospore membrane, GST-HisX6 fusion) Sporulation-specific protein 2: AVEPNGGPNILDHNIMLVNTNATIPKKEQTDFEVISPTKQTQVDEDCKKGLYHIENAGNLIELQAKCWKVVGNIEISSNYSGSLIDLGLIREIEGDLIIKNNKHIFRIQGYNLESLGKLELDSLTSFVSLDFPALKEVETVDWRVLPILSSVVINGNIKKIKNIIISDTALTSIDYFNNVKKVDIFNINNNRFLENLFASLESVTKQLTVHSNAKELELDLSNLHTVENMTIKDVSEIKLAKLSSVNSSLEFIENQFSSLELPLLAKVQGTLGLIDNKNLKKLNFSNATDIQGGLMIANNTELAKIDFFPKLRQIGGAIYFEGSFDKIDLPELKLVKGSAYIKSSSEELNCEEFTSPKAGRSIIRGGKIECTSGMKSKMLNVDEEGNVLGKQETDNDNGKKEKGKNGAKSQGSSKKMEN | 44.61 | 25.31 | 54.63 | 18.50 | 64.02 | 47.47 | preferentially interacts with PI(3)P | – | – |
| ATP1: yeast alpha subunit of F1-ATP synthase, GST-HisX6 fusion (protein, UniProt P07251 36-545, looked up, GST-His6 tag, yeast alpha subunit of F1-ATP synthase, GST-HisX6 fusion) ATP synthase subunit alpha, …: ASTKAQPTEVSSILEERIKGVSDEANLNETGRVLAVGDGIARVFGLNNIQAEELVEFSSGVKGMALNLEPGQVGIVLFGSDRLVKEGELVKRTGNIVDVPVGPGLLGRVVDALGNPIDGKGPIDAAGRSRAQVKAPGILPRRSVHEPVQTGLKAVDALVPIGRGQRELIIGDRQTGKTAVALDTILNQKRWNNGSDESKKLYCVYVAVGQKRSTVAQLVQTLEQHDAMKYSIIVAATASEAAPLQYLAPFTAASIGEWFRDNGKHALIVYDDLSKQAVAYRQLSLLLRRPPGREAYPGDVFYLHSRLLERAAKLSEKEGSGSLTALPVIETQGGDVSAYIPTNVISITDGQIFLEAELFYKGIRPAINVGLSVSRVGSAAQVKALKQVAGSLKLFLAQYREVAAFAQFGSDLDASTKQTLVRGERLTQLLKQNQYSPLATEEQVPLIYAGVNGHLDGIELSRIGEFESSFLSYLKSNHNELLTEIREKGELSKELLASLKSATESFVATF | 0.29 | 26.44 | 11.93 | – | 46.38 | 28.09 | preferentially binds PI(3,4)P2 | – | – |
| THI13: yeast protein involved in nucleotide metabolism, GST-HisX6 fusion (protein, UniProt Q07748 1-340, looked up, GST-His6 tag, yeast protein involved in nucleotide metabolism, GST-HisX6 fusion) 4-amino-5-hydroxymethyl-2-meth …: MSTDKITFLLNWQPTPYHIPIFLAQTKGYFKEQGLDIAILEPTNPSDVTELIGSGKVDMGLKAMIHTLAAKARGFPVTSVASLLDEPFTGVLYLKGSGITEDFQSLKGKKIGYVGEFGKIQIDELTKHYGMKPEDYTAVRCGMNVAKYIIEGKIDAGIGIECMQQVELEEYLAKQGRPASDAKMLRIDKLACLGCCCFCTVLYICNDEFLKKNPEKVRKFLKAIKKATDYVLADPVKAWKEYIDFKPQLNNDLSYKQYQRCYAYFSSSLYNVHRDWKKVTGYGKRLAILPPDYVSNYTNEYLSWPEPEEVSDPLEAQRLMAIHQEKCRQEGTFKRLALPA | 43.14 | 39.04 | 75.66 | 13.75 | 64.67 | 55.09 | – | bind the DNA probe | – |
| GPM3: yeast phosphoglycerate mutase, GST-HisX6 fusion (protein, UniProt Q12326 1-303, looked up, GST-His6 tag, yeast phosphoglycerate mutase, GST-HisX6 fusion) Phosphoglycerate mutase 3: MTVTDTFKLFILRHGQSELNSENIFCGWIDAQLTEKGKSQARHSAKLIKQFCDSNNISLPQIGYTSRLIRTQQTMDVILEELGLKHTNYVITTNTNIKEELQDTRFEGSMPVLQTWRLNERHYGAWQGQRKPDILKEYGKEKYMYIRRDYNGKPPKVNLNLEMVQEENDQGSSTGYDFKEPNRHLKYGPEEKANERLPESESLCEVVVRLKPFLNNVVLSTANKISQESCVIVGHGSSVRSLLKVLEGISDEDIKDVDIPNGIPLVIELDRDNYSFVRKFYLDPESAKVNAQMVRDEGFEKNP | 137.64 | 66.04 | 85.40 | 42.50 | 112.57 | 85.35 | – | – | identified |
| STP22: yeast protein required for vacuolar targeting of plasma membrane proteins, GST-HisX6 fusion (protein, UniProt P25604 1-385, looked up, GST-His6 fusion tag) Suppressor protein STP22 of …: MSANGKISVPEAVVNWLFKVIQPIYNDGRTTFHDSLALLDNFHSLRPRTRVFTHSDGTPQLLLSIYGTISTGEDGSSPHSIPVIMWVPSMYPVKPPFISINLENFDMNTISSSLPIQEYIDSNGWIALPILHCWDPAAMNLIMVVQELMSLLHEPPQDQAPSLPPKPNTQLQQEQNTPPLPPKPKSPHLKPPLPPPPPPQPASNALDLMDMDNTDISPTNHHEMLQNLQTVVNELYREDVDYVADKILTRQTVMQESIARFHEIIAIDKNHLRAVEQAIEQTMHSLNAQIDVLTANRAKVQQFSSTSHVDDEDVNSIAVAKTDGLNQLYNLVAQDYALTDTIECLSRMLHRGTIPLDTFVKQGRELARQQFLVRWHIQRITSPLS | 2.93 | 22.05 | 8.79 | 51.50 | −8.27 | 10.89 | preferentially binds PI(4)P | – | – |
